Test results published in PMC9482650, “Quantitative fragmentomics allow affinity mapping of interactomes” (Nature Communications, 2022).

T1: APBA3_1, O96018
T1 sequence (O96018 389-490, limits assumed, looked up): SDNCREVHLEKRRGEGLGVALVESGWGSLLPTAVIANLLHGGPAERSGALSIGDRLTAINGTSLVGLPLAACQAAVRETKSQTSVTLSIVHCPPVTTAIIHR

T2: ARHGAP21, Q5T5U3
T2 sequence (Q5T5U3 45-169, limits assumed, looked up): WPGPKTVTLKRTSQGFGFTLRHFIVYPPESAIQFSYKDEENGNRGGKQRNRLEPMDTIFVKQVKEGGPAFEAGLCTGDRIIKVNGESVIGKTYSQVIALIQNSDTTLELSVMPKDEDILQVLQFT

T3: CARD11, Q9BXL7
T3 sequence (Q9BXL7 662-765, limits assumed, looked up): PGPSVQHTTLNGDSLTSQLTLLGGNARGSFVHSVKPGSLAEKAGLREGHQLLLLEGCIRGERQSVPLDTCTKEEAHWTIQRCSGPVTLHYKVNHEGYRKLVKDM

T4: DVL3, Q92997
T4 sequence (Q92997 244-331, limits assumed, looked up): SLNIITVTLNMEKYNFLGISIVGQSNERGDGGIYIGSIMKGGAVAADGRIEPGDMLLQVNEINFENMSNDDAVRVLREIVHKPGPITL

T5: MPDZ_10, O75970
T5 sequence (O75970 1624-1722, limits assumed, looked up): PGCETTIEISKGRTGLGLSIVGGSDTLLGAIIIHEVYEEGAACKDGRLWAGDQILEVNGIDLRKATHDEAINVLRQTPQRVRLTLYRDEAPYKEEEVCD

T6: MPP7, Q5T2T1
T6 sequence (Q5T2T1 134-230, limits assumed, looked up): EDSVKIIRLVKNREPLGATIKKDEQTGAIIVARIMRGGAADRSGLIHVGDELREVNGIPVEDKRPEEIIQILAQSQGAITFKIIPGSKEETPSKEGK

T7: NHERF3_4, Q5T2W1
T7 sequence (Q5T2W1 373-468, limits assumed, looked up): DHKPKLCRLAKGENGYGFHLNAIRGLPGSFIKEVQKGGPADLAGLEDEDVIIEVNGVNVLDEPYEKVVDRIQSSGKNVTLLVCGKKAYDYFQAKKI

T8: RADIL, Q96JH8
T8 sequence (Q96JH8 971-1071, limits assumed, looked up): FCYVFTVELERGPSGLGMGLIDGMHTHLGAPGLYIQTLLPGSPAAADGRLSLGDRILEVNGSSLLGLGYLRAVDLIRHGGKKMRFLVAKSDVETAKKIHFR


Columns and labels:
Experiment in all cases: holdup assay
Set-up in all cases: key: below the threshold = too weak to quantify, mostly under pKd 3.1 to 4
Conditions in all cases: plain residues with an end cap or a label only (N-terminal biotin on a linker: ado-ado)
[1] = biological target: T1, APBA3_1, O96018
[2] = biological target: T2, ARHGAP21, Q5T5U3
[3] = biological target: ARHGEF12, Q9NZN5-2
Chain of ARHGEF12, Q9NZN5-2 (Q9NZN5 other isoform, or with tags, fused parts or gaps): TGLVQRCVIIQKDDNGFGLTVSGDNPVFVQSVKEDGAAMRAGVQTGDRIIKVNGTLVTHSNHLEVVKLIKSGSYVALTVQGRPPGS

[4] = biological target: T3, CARD11, Q9BXL7
[5] = biological target: DLG2_2, Q15700
Chain of DLG2_2, Q15700 (Q15700 189-283): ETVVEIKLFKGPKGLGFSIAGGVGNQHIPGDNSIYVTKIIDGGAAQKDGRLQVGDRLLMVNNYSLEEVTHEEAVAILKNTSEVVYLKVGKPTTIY

[6] = biological target: DLG4_1, P78352
Chain of DLG4_1, P78352 (P78352 62-152): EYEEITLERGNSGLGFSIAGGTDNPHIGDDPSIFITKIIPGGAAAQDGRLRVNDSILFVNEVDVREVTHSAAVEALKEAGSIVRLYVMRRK

[7] = biological target: T4, DVL3, Q92997
[8] = biological target: FRMPD2_3, Q68DX3
Chain of FRMPD2_3, Q68DX3 (Q68DX3 1073-1166): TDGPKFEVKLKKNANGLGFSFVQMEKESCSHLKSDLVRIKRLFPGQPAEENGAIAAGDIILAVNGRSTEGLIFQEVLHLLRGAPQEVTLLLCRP

[9] = biological target: FRMPD4, Q14CM0
Chain of FRMPD4, Q14CM0 (Q14CM0 67-160): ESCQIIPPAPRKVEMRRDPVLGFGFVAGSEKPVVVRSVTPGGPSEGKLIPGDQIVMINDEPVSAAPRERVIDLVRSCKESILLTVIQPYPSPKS

[10] = biological target: GORASP1, Q9BQQ3
Chain of GORASP1, Q9BQQ3 (Q9BQQ3 1-208): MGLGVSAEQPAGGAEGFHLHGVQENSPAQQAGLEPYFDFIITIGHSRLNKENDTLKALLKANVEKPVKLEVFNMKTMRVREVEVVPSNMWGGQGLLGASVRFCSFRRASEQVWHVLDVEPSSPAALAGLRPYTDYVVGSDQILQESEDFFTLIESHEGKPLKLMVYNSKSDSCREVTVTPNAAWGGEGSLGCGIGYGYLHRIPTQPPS

[11] = biological target: GRIP2_5, Q9C0E4
Chain of GRIP2_5, Q9C0E4 (Q9C0E4 544-642): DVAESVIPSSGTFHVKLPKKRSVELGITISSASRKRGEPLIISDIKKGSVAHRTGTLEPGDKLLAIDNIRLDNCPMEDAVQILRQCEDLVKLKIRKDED

[12] = biological target: Inadl_10, Q8NI35
Chain of Inadl_10, Q8NI35 (Q8NI35 1673-1763): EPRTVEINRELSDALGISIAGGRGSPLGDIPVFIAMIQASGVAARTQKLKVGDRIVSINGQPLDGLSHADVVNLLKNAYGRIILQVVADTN

[13] = biological target: Inadl_6, Q8NI35
Chain of Inadl_6, Q8NI35 (Q8NI35 1058-1167): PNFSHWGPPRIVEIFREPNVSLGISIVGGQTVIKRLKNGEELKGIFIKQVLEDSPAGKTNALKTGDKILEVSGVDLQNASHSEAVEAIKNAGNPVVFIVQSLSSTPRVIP

[14] = biological target: Inadl_9, Q8NI35
Chain of Inadl_9, Q8NI35 (Q8NI35 1530-1615): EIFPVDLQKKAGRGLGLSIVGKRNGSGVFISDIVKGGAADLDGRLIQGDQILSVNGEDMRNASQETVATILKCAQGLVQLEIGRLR

[15] = biological target: LDB3, O75112
Chain of LDB3, O75112 (O75112 1-94): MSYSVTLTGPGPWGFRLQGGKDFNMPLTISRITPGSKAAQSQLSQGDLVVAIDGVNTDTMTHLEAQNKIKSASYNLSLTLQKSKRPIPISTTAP

[16] = biological target: LNX1_1, Q8TBB1
Chain of LNX1_1, Q8TBB1 (Q8TBB1 261-371): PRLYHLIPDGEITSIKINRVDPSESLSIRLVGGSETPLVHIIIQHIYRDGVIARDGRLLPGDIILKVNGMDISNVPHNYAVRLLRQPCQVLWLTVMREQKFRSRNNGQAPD

[17] = biological target: LNX1_2, Q8TBB1
Chain of LNX1_2, Q8TBB1 (Q8TBB1 371-470): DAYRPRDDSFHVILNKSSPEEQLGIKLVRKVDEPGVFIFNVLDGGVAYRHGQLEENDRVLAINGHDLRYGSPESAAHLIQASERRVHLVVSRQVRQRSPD

[18] = biological target: MAGI1_1, Q96QZ7
Chain of MAGI1_1, Q96QZ7 (Q96QZ7 1-106): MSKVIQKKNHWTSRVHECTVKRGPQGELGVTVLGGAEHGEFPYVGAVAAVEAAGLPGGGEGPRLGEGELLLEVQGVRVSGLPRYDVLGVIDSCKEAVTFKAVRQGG

[19] = biological target: MAGI2_2, Q86UL8
Chain of MAGI2_2, Q86UL8 (Q86UL8 410-522): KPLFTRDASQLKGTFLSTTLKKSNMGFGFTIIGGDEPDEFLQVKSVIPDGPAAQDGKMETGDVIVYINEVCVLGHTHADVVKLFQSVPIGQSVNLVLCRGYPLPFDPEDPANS

[20] = biological target: MAGI2_3, Q86UL8
Chain of MAGI2_3, Q86UL8 (Q86UL8 600-682): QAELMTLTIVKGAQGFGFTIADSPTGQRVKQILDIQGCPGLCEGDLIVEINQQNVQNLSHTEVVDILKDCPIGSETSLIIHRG

[21] = biological target: MAGI2_4, Q86UL8
Chain of MAGI2_4, Q86UL8 (Q86UL8 772-865): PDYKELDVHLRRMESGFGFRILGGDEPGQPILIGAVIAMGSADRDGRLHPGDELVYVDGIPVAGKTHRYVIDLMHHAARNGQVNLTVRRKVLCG

[22] = biological target: MAGI3_2, Q5TCQ9
Chain of MAGI3_2, Q5TCQ9 (Q5TCQ9 398-503): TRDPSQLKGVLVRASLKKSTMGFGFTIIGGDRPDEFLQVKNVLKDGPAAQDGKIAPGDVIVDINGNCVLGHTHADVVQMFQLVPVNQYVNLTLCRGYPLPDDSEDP

[23] = biological target: T5, MPDZ_10, O75970
[24] = biological target: T6, MPP7, Q5T2T1
[25] = biological target: T7, NHERF3_4, Q5T2W1
[26] = biological target: NOS1, P29475
Chain of NOS1, P29475 (P29475 9-101): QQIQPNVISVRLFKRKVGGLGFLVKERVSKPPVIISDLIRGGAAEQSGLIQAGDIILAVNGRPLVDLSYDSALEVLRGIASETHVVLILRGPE

[27] = biological target: PDZRN4_1, Q6ZMN7
Chain of PDZRN4_1, Q6ZMN7 (Q6ZMN7 213-318): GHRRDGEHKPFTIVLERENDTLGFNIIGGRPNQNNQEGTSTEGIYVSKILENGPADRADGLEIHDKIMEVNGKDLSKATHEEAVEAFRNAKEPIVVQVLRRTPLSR

[28] = biological target: PTPN3, P26045
Chain of PTPN3, P26045 (P26045 505-587): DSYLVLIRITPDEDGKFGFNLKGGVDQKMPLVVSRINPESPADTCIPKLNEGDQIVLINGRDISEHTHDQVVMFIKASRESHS

[29] = biological target: T8, RADIL, Q96JH8
[30] = biological target: SCRIB_3, Q14160
Chain of SCRIB_3, Q14160 (Q14160 999-1103): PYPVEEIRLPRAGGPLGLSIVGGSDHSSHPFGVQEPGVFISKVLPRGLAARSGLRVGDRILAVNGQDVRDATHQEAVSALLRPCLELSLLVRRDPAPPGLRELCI

Binder | pKd [1] | pKd [2] | pKd [3] | pKd [4] | pKd [5] | pKd [6] | pKd [7] | pKd [8] | pKd [9] | pKd [10] | pKd [11] | pKd [12] | pKd [13] | pKd [14] | pKd [15] | pKd [16] | pKd [17] | pKd [18] | pKd [19] | pKd [20] | also measured
SSGSTSSSRI [ADGRG1, Q9Y653] | below the threshold | below the threshold | 4.04 | below the threshold | 3.49 | below the threshold | below the threshold | below the threshold | below the threshold | below the threshold | below the threshold | below the threshold | below the threshold | below the threshold | below the threshold | 3.66 | below the threshold | below the threshold | below the threshold | below the threshold | pKd [21]: 3.77; pKd [22]: 3.63; pKd [23]: below the threshold; pKd [24]: below the threshold; pKd [25]: below the threshold; pKd [26]: below the threshold; pKd [27]: below the threshold; pKd [28]: 3.86; pKd [29]: below the threshold; pKd [30]: below the threshold
PEEGKKQSQC [GAGE12J, A6NER3] | below the threshold | below the threshold | 3.84 | below the threshold | below the threshold | below the threshold | below the threshold | below the threshold | 3.48 | below the threshold | below the threshold | below the threshold | below the threshold | below the threshold | below the threshold | below the threshold | below the threshold | below the threshold | 3.67 | 3.58 | pKd [21]: below the threshold; pKd [22]: below the threshold; pKd [23]: below the threshold; pKd [24]: below the threshold; pKd [25]: below the threshold; pKd [26]: below the threshold; pKd [27]: below the threshold; pKd [28]: 3.91; pKd [29]: below the threshold; pKd [30]: below the threshold
NPETRDETQL [KCNT1, Q5JUK3] | below the threshold | 4.02 | 4.36 | below the threshold | below the threshold | 3.52 | below the threshold | below the threshold | 4.84 | below the threshold | below the threshold | below the threshold | 3.76 | below the threshold | below the threshold | below the threshold | below the threshold | below the threshold | below the threshold | 3.52 | pKd [21]: below the threshold; pKd [22]: below the threshold; pKd [23]: below the threshold; pKd [24]: below the threshold; pKd [25]: below the threshold; pKd [26]: 3.52; pKd [27]: 4.69; pKd [28]: 4.78; pKd [29]: below the threshold; pKd [30]: 4.84
PKLMGVETVV [DUSP10, Q9Y6W6] | below the threshold | 3.73 | 3.74 | below the threshold | 5.36 | 5.16 | below the threshold | 3.61 | below the threshold | 4.36 | below the threshold | below the threshold | 3.53 | 3.55 | below the threshold | 4.06 | 3.96 | 3.52 | 4.73 | 4.17 | pKd [21]: 4.14; pKd [22]: 5.32; pKd [23]: below the threshold; pKd [24]: below the threshold; pKd [25]: below the threshold; pKd [26]: 4.08; pKd [27]: 3.7; pKd [28]: 4.66; pKd [29]: 4.5; pKd [30]: 4.44
